Laboratory results published in patent US20230265151A1, “GIP/GLP1 CO-AGONIST COMPOUNDS” (priority 2020, published 2023).

Legend:
human glucagon receptor [1] = target: human glucagon receptor (human, UniProt P47871 26-477); assay: cell-based or functional assay
human GIP receptor = target: T1, human GIP receptor (human, UniProt P48546 22-466); assay: SPA competition vs [125I]-GIP, hGIPR membranes
T1 construct: whole, on cells; also called hGIPR; human glucose-dependent insulinotropic polypeptide receptor
T1 sequence (looked up): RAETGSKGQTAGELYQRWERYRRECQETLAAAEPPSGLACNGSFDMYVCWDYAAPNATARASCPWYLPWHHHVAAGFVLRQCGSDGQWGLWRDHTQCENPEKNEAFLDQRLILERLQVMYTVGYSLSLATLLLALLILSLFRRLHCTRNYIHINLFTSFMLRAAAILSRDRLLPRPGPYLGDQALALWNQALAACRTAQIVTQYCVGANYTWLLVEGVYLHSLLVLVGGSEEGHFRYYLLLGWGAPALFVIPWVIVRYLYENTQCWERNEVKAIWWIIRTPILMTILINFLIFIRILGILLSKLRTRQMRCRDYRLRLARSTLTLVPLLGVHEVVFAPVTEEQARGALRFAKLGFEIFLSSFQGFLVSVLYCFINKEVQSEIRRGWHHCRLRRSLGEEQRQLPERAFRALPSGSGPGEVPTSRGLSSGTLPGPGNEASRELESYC
Experimental: (§1) The binding buffer contains 25 mM HEPES, pH 7.4, 2.5 mM CaCl₂, 1 mM MgCl₂, 0.1% (w/v) bacitracin, 0.003% (w/v) TWEEN®-20, and Roche Complete™ Protease Inhibitors without EDTA. […] Plates are sealed and mixed on a plate shaker (setting 6) for 1 minute and read with a PerkinElmer Trilux MicroBeta® scintillation counter after 2.5 to 12 hours of incubation/settling time at room temperature.
(§2) Data are analyzed using four-parameter (curve maximum, curve minimum, IC₅₀, Hill slope) nonlinear regression routines (Genedata Screener, version 12.0.4, Genedata AG, Basal, Switzerland). […] Values for Kᵢ are reported as the geometric mean, with error expressed as the standard error of the mean (SEM) and n is equal to the number of independent replicates (determined in assays performed on different days). Geometric Means are calculated as follows: […]

human glucagon receptor [2] = target: T2, human glucagon receptor (human, UniProt P47871 26-477); assay: SPA competition vs [125I]-Gcg, hGcgR membranes
T2 construct: whole, on cells; also called hGCGR; hGcgR
Experimental: as §1, with “4-(2-hydroxyethyl)-1-piperazineethanesulfonic acid (HEPES),” for “HEPES,”, “MgCh,” for “MgCl₂,”, “bacitracin (Research Products),” for “bacitracin,”, “Polyoxyethylenesorbitan monolaurate (TWEEN®-20),” for “TWEEN®-20,”, “after” for “after 2.5 to”
T2 sequence (P47871 26-477): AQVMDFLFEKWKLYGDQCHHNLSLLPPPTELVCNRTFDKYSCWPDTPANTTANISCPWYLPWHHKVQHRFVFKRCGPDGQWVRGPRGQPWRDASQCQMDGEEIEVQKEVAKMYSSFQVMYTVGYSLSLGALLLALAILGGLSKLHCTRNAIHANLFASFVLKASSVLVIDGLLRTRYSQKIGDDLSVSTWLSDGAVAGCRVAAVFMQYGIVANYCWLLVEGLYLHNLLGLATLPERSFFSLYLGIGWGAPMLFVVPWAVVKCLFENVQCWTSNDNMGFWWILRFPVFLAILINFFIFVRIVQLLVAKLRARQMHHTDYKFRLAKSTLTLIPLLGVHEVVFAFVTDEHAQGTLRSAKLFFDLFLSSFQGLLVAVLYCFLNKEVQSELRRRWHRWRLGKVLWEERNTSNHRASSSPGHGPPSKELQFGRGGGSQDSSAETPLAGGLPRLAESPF
Data are analyzed using four-parameter (curve maximum, curve minimum, IC₅₀, Hill slope) nonlinear regression routines (Genedata Screener, version 12.0.4, Genedata AG, Basal, Switzerland). […] Values for Kᵢ are reported as the geometric mean, with error expressed as the standard error of the mean (SEM) and n is equal to the number of independent replicates (determined in assays performed on different days).

human GLP-1 receptor = target: T3, human GLP-1 receptor (human, UniProt P43220 24-463); assay: SPA competition vs [125I]-GLP-1, hGLP-1R membranes
T3 construct: whole, on cells; also called hGLP-1R; human glucagon-like peptide-1 receptor
Experimental: The binding buffer contains 25 mM HEPES, pH 7.4, 2.5 mM CaCl₂, 1 mM MgCl₂, 0.1% (w/v) bacitracin, 0.003% (w/v) TWEEN®-20, and Roche Complete™ Protease Inhibitors without EDTA.
as §2

B1: Y-Aib-EGT-αMeF-TSD-4Pal-SI-αMeL-LD-Orn-K((2-[2-(2-Amino-ethoxy)-ethoxy]-acetyl)2-(γ-Glu)-CO-(CH2)12-CO2H)AQ-Aib-EFI-(D-Glu)-αMeY-LIEGGK((2-[2-(2-Amino-ethoxy)-e … (peptide)
peptide: YXEGTXTSDXSIXLDXKAQXEFIXXLIEGGKSSGAPPPS
modifications: Aib2, αMeF6, 4Pal10, αMeL13, Orn16, Aib20, D-Glu24, αMeY25; acylated K17, K31 (groups as in name); C-terminal amide
With B1 the “cAMP EC50 (1.0% HSA)” value (human glucagon receptor [1]) was over 9950 nM.

B2: Y-Aib-EGT-αMeF(2F)-TSD-4Pal-SI-αMeL-LD-Orn-K((2-[2-(2-Amino-ethoxy)-ethoxy]-acetyl)2-(γ-Glu)-(4-(4-tert-butylphenyl)butanoyl))AQ-Aib-EFI-(D-Glu)-αMeY-LIK((2-[2- … (peptide)
peptide: YXEGTXTSDXSIXLDXKAQXEFIXXLIKGGPSSGAPPPS
modifications: Aib2, αMeF(2F)6, 4Pal10, αMeL13, Orn16, Aib20, D-Glu24, αMeY25; acylated K17, K28 (groups as in name); C-terminal amide
In the case of B2, the “cAMP EC50 (1.0% HSA)” value (human glucagon receptor [1]) is reported as over 9950 nM.

B3: Y-Aib-EGT-αMeF(2F)-TSD-4Pal-SI-αMeL-LD-Orn-K((γ-Glu)-(2-[2-(2-Amino-ethoxy)-ethoxy]-acetyl)2-CO-(CH2)12-CO2H)AQ-Aib-EFI-(D-Glu)-αMeY-LIEGGK((γ-Glu)-(2-[2-(2-Ami … (peptide)
peptide: YXEGTXTSDXSIXLDXKAQXEFIXXLIEGGKSSGAPPPS
modifications: Aib2, αMeF(2F)6, 4Pal10, αMeL13, Orn16, Aib20, D-Glu24, αMeY25; acylated K17, K31 (groups as in name); C-terminal amide
For B3, the “cAMP EC50 (1.0% HSA)” value (human glucagon receptor [1]) was over 9950 nM.

B4: Y-Aib-EGT-αMeF(2F)-TSD-4Pal-SI-αMeL-LD-Orn-K((εK)-(γ-Glu)-CO-(CH2)12-CO2H)AQ-Aib-EFI-(D-Glu)-αMeY-LIEGGK((εK)-(γ-Glu)-CO-(CH2)12-CO2H)SSGAPPPS-NH2 (peptide)
peptide: YXEGTXTSDXSIXLDXKAQXEFIXXLIEGGKSSGAPPPS
modifications: Aib2, αMeF(2F)6, 4Pal10, αMeL13, Orn16, K17(Z1), Aib20, D-Glu24, αMeY25, K31(Z1), C-term NH2; Z1=(εK)-(γ-Glu)-CO-(CH2)12-CO2H
B4 was tested, and the Ki (human GIP receptor) was 0.0608 nM, the Ki (human glucagon receptor [2]) was 174 nM and the Ki (human GLP-1 receptor) was 0.803 nM.

B5: Y-Aib-EGT-αMeF(2F)-TSD-4Pal-SI-αMeL-LD-Orn-K((2-[2-(2-Amino-ethoxy)-ethoxy]-acetyl)-(γ-Glu)-(2-[2-(2-Amino-ethoxy)-ethoxy]-acetyl)-CO-(CH2)12-CO2H)AQ-Aib-EFI-(D … (peptide)
peptide: YXEGTXTSDXSIXLDXKAQXEFIXXLIEGGKSSGAPPPS
modifications: Aib2, αMeF(2F)6, 4Pal10, αMeL13, Orn16, Aib20, D-Glu24, αMeY25; acylated K17, K31 (groups as in name); C-terminal amide
For B5, the “cAMP EC50 (1.0% HSA)” value (human glucagon receptor [1]) was over 9950 nM.

B6: Y-Aib-EGT-αMeF(2F)-TSD-4Pal-SI-αMeL-LD-Orn-IAQ-Aib-K((2-[2-(2-Amino-ethoxy)-ethoxy]-acetyl)2-(γ-Glu)-(4-(4-tert-butylphenyl)butanoyl))FI-(D-Glu)-αMeY-LIK((2-[2- … (peptide)
peptide: YXEGTXTSDXSIXLDXIAQXKFIXXLIKGGPSSGAPPPS
modifications: Aib2, αMeF(2F)6, 4Pal10, αMeL13, Orn16, Aib20, D-Glu24, αMeY25; acylated K21, K28 (groups as in name); C-terminal amide
With B6 the “cAMP EC50 (1.0% HSA)” value (human glucagon receptor [1]) was over 9950 nM.

B7: Y-Aib-EGT-αMeF(2F)-TSD-4Pal-SI-αMeL-LD-Orn-K((2-[2-(2-Amino-ethoxy)-ethoxy]-acetyl)-(εK)-(γ-Glu)-CO-(CH2)12-CO2H)AQ-Aib-EFI-(D-Glu)-αMeY-LIEGGK((2-[2-(2-Amino-e … (peptide)
peptide: YXEGTXTSDXSIXLDXKAQXEFIXXLIEGGKSSGAPPPS
modifications: Aib2, αMeF(2F)6, 4Pal10, αMeL13, Orn16, K17(Z1), Aib20, D-Glu24, αMeY25, K31(Z1), C-term NH2; Z1=AEEA-(εK)-(γ-Glu)-CO-(CH2)12-CO2H
B7 was tested, and the Ki (human GIP receptor) was 0.077 nM, the Ki (human glucagon receptor [2]) was 868 nM and the Ki (human GLP-1 receptor) was 1.38 nM.

B8: Y-Aib-EGT-αMeF(2F)-TSD-4Pal-SI-αMeL-LD-Orn-IAQ-Aib-K((2-[2-(2-Amino-ethoxy)-ethoxy]-acetyl)2-(γ-Glu)-CO-(CH2)12-CO2H)FI-(D-Glu)-αMeY-LIK((2-[2-(2-Amino-ethoxy)- … (peptide)
peptide: YXEGTXTSDXSIXLDXIAQXKFIXXLIKGGPSSGAPPPS
modifications: Aib2, αMeF(2F)6, 4Pal10, αMeL13, Orn16, Aib20, K21(Z1), D-Glu24, αMeY25, K28(Z1), C-term NH2; Z1=AEEA2-(γ-Glu)-CO-(CH2)12-CO2H
B8 was tested, and the Ki (human GIP receptor) was 0.0454 nM, the Ki (human glucagon receptor [2]) was 53.9 nM and the Ki (human GLP-1 receptor) was 3.38 nM.

B9: Y-Aib-EGT-αMeF(2F)-TSD-4Pal-SI-αMeL-LD-Orn-K((2-[2-(2-Amino-ethoxy)-ethoxy]-acetyl)2-(γ-Glu)-CO-(CH2)14-CH3)AQ-Aib-EFI-(D-Glu)-αMeY-LIK((2-[2-(2-Amino-ethoxy)-e … (peptide)
peptide: YXEGTXTSDXSIXLDXKAQXEFIXXLIKGGPSSGAPPPS
modifications: Aib2, αMeF(2F)6, 4Pal10, αMeL13, Orn16, K17(Z1), Aib20, D-Glu24, αMeY25, K28(Z1), C-term NH2; Z1=AEEA2-(γ-Glu)-CO-(CH2)14-CH3
With B9 the Ki (human GIP receptor) was 0.0238 nM, the Ki (human glucagon receptor [2]) was 1.18 nM and the Ki (human GLP-1 receptor) was 0.251 nM.

B10: Y-Aib-EGT-αMeF(2F)-TSD-4Pal-SI-αMeL-LD-Orn-K((2-[2-(2-Amino-ethoxy)-ethoxy]-acetyl)2-(γ-Glu)-CO-(CH2)14-CH3)AQ-Aib-K((2-[2-(2-Amino-ethoxy)-ethoxy]-acetyl)2-(γ- … (peptide)
peptide: YXEGTXTSDXSIXLDXKAQXKFIXXLIEGGPSSGAPPPS
modifications: Aib2, αMeF(2F)6, 4Pal10, αMeL13, Orn16, K17(Z1), Aib20, K21(Z1), D-Glu24, αMeY25, C-term NH2; Z1=AEEA2-(γ-Glu)-CO-(CH2)14-CH3
In the case of B10, the Ki (human GIP receptor) is reported as 0.0231 nM, the Ki (human glucagon receptor [2]) is reported as 0.293 nM and the Ki (human GLP-1 receptor) is reported as 0.246 nM.
